We go through one substance from article PMC4918640.

This test deals with extracellular domain of PDGFRα-Fc conjugated (human) (UniProt P16234). As to the kind of experiment: SPR + BLI.
Sequence of UniProt P16234 (P16234 24-528): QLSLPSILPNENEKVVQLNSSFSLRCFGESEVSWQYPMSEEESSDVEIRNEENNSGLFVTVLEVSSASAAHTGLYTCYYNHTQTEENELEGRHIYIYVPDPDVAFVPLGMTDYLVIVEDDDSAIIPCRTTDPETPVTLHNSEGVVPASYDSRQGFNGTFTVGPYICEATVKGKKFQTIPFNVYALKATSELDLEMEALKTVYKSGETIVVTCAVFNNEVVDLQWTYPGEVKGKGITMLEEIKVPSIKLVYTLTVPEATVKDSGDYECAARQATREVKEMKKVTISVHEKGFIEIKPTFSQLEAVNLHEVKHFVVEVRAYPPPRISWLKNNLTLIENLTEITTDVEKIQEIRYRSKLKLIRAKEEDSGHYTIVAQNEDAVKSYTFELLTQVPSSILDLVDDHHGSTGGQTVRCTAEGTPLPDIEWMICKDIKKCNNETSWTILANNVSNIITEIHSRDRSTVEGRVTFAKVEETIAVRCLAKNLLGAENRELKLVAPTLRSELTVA

“soluble gHgLgO trimer (from UniProt P16832;P16750) (complex)”: the Kd turned out to be 2 nM.

In general, Kd refers to the concentration at which binding is half-saturated.
